In patent publication US20030219848A1 (DISCOVERX, published 2003):

Target: enzyme acceptor (EA) fragment of β-galactosidase (UniProt P00722 2-1024 = β-galactosidase, limits assumed)
Assay: cell-based or functional assay

Chain of enzyme acceptor (EA) fragment of β-galactosidase (P00722 other isoform, or with tags, fused parts or gaps limits assumed): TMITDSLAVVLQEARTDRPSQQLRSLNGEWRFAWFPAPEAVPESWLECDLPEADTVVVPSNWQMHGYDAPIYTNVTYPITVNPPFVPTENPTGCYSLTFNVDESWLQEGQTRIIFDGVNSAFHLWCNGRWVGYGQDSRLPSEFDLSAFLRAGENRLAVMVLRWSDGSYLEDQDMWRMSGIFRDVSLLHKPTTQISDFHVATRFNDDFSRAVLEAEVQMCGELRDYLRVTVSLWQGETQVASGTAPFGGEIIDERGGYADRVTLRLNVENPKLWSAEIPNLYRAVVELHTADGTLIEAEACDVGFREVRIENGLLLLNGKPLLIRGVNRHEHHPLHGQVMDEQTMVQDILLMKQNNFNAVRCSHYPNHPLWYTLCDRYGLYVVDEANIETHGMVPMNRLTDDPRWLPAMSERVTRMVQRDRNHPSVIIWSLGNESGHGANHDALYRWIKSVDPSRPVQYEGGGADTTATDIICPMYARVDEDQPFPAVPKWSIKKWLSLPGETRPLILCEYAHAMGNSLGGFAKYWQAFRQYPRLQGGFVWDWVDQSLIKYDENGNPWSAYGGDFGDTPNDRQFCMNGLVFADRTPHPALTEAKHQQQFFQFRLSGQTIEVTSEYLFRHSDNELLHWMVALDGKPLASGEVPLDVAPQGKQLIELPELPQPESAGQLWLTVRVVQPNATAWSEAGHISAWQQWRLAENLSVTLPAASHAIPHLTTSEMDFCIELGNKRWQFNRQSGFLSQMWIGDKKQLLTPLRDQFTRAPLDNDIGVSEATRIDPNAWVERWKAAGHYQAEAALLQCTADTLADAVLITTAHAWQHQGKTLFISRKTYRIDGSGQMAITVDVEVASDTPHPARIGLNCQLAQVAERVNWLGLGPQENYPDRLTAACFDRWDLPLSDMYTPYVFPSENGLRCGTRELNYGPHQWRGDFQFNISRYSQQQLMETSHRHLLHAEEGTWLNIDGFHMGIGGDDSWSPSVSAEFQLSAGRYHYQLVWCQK

Row | Binder | complementation activity (β-galactosidase activity after ED + EA incubation) relative to native 90 mer ED 28 (SEQ ID 17), ED 0.0123 nM, 60 min [%] | complementation activity relative to native 90 mer ED 28 (SEQ ID 17), at the same concentration (0.0123 nM) [%]
1 | SLAVVLQRRDWENPGVTQLNRLAAHPPFASWRNSEEA [37 mer ED (SEQ ID NO 1), short enzyme donor fragment of β-galactosidase] | 45 | –
2 | SLAVVLQRRDWENPGVTQLNKLAAHPPFASWRNSEEARTDCPSQQL [46 mer ED (SEQ ID NO 10)] | – | 72
